From patent US20240141072A1 (published 2024)

Assays:
[1] = molecular target: T1, DLL3 targeting trispecific protein containing 52D04, anti-CD3:anti-ALB:anti-DLL3 (CAT) configuration; experiment: flow cytometry on NCI-H82, SHP77, DMS53, NCI-H2171 cells
T1 construct: also called DLL3-targeting TriTAC

[2] = molecular target: T2, DLL3 targeting trispecific protein containing 52D04, anti-DLL3:anti-ALB:anti-CD3 (TAC) configuration; experiment: as above
T2 construct: also called DLL3-targeting TriTAC
T2 sequence (chain, as listed by the source): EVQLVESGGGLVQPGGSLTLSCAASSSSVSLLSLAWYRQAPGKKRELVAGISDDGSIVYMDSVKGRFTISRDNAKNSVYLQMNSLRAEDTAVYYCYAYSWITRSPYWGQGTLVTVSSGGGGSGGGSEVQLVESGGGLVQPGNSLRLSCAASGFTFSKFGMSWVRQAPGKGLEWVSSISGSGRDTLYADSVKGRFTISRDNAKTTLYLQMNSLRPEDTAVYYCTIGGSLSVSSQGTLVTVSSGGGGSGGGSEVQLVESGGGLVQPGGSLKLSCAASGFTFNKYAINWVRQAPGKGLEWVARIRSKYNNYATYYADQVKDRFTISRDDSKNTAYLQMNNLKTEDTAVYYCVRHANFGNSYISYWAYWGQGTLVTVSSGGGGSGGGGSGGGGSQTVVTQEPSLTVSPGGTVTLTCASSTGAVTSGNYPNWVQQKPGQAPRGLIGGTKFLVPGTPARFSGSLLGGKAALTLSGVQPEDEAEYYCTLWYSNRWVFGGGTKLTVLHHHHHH

T1 sequence (chain, as listed by the source): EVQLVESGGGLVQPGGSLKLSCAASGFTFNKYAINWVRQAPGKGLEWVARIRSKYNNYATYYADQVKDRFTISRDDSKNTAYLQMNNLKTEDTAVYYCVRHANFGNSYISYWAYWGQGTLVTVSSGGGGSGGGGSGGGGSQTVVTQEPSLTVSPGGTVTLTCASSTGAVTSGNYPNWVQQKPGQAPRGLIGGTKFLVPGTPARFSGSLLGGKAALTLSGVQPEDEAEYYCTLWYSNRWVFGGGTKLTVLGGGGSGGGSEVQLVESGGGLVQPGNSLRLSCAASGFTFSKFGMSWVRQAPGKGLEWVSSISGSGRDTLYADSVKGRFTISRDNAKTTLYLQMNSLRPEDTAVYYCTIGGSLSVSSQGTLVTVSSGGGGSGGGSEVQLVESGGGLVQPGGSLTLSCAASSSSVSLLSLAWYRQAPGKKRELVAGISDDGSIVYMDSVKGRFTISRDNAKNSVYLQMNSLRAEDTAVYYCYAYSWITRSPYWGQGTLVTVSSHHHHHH

B1: human DLL3 on DLL3-expressing tumor cell lines (ligand)
chain: AGVFELQIHSFGPGPGPGAPRSPCSARLPCRLFFRVCLKPGLSEEAAESPCALGAALSARGPVYTEQPGAPAPDLPLPDGLLQVPFRDAWPGTFSFIIETWREELGDQIGGPAWSLLARVAGRRRLAAGGPWARDIQRAGAWELRFSYRARCEPPAVGTACTRLCRPRSAPSRCGPGLRPCAPLEDECEAPLVCRAGCSPEHGFCEQPGECRCLEGWTGPLCTVPVSTSSCLSPRGPSSATTGCLVPGPGPCDGNPCANGGSCSETPRSFECTCPRGFYGLRCEVSGVTCADGPCFNGGLCVGGADPDSAYICHCPPGFQGSNCEKRVDRCSLQPCRNGGLCLDLGHALRCRCRAGFAGPRCEHDLDDCAGRACANGGTCVEGGGAHRCSCALGFGGRDCRERADPCAARPCAHGGRCYAHFSGLVCACAPGYMGARCEFPVHPDGASALPAAPPGLRPGDPQRYLLPPALGLLVAAGVAGAALLLVHVRRRGHSQDAGSRLLAGTPEPSVHALPDALNNLRTQEGSGDGPSSSVDWNRPEDVDPQGIYVISAPSIYAREVATPLFPPLHTGRAGQRQHLLFPYPSSILSVK
notes: endogenous DLL3 of human cancer cell lines
[1]
  binding result: binds
[2]
  binding result: binds
